According to PMC8962251 (Biomedicines, 2022):
Where no end group is shown, it is not given here.

Biological target: T1, SARS CoV-2 S1S2 trimer (SARS-CoV-2, UniProt P0DTC2 14-1213)
T1 construct: also called trimeric S1S2; "wt" spike trimer
Assay: SPR
Conditions: both partners purified

B1: CVRBDL-3 (peptide)
peptide: HDFWWEYDKKNDTWTRRRR-NH2
notes: also called CVRDBL-3; CVRBD-3; source: synthetic peptide; bought: CASLO
stoichiometry N: 1
